The text below walks through data of patent publication US20200095340A1.

First the molecules themselves.
B1: anti-DLL3 trispecific protein 4B02 (protein, part only; not given: CD3 binder and albumin binder, part only)
chain, part: EVQLVESGGGLVQPGGSLTLSCAASGSRVSFLSMAWYRQAPGKKRELVAGISADGSTTYIDSVKGRFTISRDNAKNSVYLQMNSLRAEDTAVYYCYAYRWTTRFTYWGQGTLVTVSSGGGGSGGGSGGGGSGGGSHHHHHH
B2: anti-DLL3 trispecific protein 4D06 (protein, part only; not given: anti-CD3 fragment and anti-albumin sdAb, part only)
chain, part: EVQLVESGGGLVQPGGSLTLSCAASGSSVKFLSMAWYRQAPGKKRELVAGISPDGSTDYIDSVKGRFTISRDNAKNSVYLQMNSLRAEDTAVYYCYAYRWTTRYRYWGQGTLVTVSSGGGGSGGGSGGGGSGGGSHHHHHH
B3: anti-DLL3 trispecific protein 3F011 (protein, part only; not given: anti-CD3 and anti-albumin domains, part only)
chain, part: EVQLVESGGGLVQPGGSLTLSCAASGSSVSFLSMAWYRQAPGKKRELVAGISTDGSTDYIDSVKGRFTISRDNAKNSVYLQMNSLRAEDTAVYYCYAYRWRTRYTYWGQGTLVTVSSGGGGSGGGSGGGGSGGGSHHHHHH
B4: anti-DLL3 trispecific protein 3H06 (protein, part only; not given: anti-CD3 and anti-albumin domains, part only)
chain, part: EVQLVESGGGLVQPGGSLTLSCAASGSSVSQLSMAWYRQAPGKKRELVAGISADGSTDYFDSVKGRFTISRDNAKNSVYLQMNSLRAEDTAVYYCYAYRWTTRGTYWGQGTLVTVSSGGGGSGGGSGGGGSGGGSHHHHHH
B5: anti-DLL3 trispecific protein 4G011 (protein, part only; not given: anti-CD3 fragment and anti-albumin sdAb, part only)
chain, part: EVQLVESGGGLVQPGGSLTLSCAASGSSVRFLSMAWYRQAPGKKRELVAGISADGSTDYIGSVKGRFTISRDNAKNSVYLQMNSLRAEDTAVYYCYAYRWSTRYTYWGQGTLVTVSSGGGGSGGGSGGGGSGGGSHHHHHH
B6: anti-DLL3 trispecific protein 3C09 (protein, part only; not given: anti-CD3 and anti-albumin domains, part only)
chain, part: EVQLVESGGGLVQPGGSLTLSCAASGSSVSFLSMAWYRQAPGKKRELVAGISADGSTIYIDSVKGRFTISRDNAKNSVYLQMNSLRAEDTAVYYCYAYRWRTRYTYWGQGTLVTVSSGGGGSGGGSGGGGSGGGSHHHHHH
B7: anti-DLL3 trispecific protein 4G08 (protein, part only; not given: anti-CD3 fragment and anti-albumin sdAb, part only)
chain, part: EVQLVESGGGLVQPGGSLTLSCAASGSSVRFLSMAWYRQAPGKKRELVAGISTDGSTDYIDSVKGRFTISRDNAKNSVYLQMNSLRAEDTAVYYCYAYRWTTRYRYWGQGTLVTVSSGGGGSGGGSGGGGSGGGSHHHHHH
B8: anti-DLL3 trispecific protein 3B07 (protein, part only; not given: anti-CD3 fragment and anti-albumin sdAb, part only)
chain, part: EVQLVESGGGLVQPGGSLTLSCAASGSRVSFLSMAWYRQAPGKKRELVAGISADGSTTYIDSVKGRFTISRDNAKNSVYLQMNSLRAEDTAVYYCYAYRWTTRYTYWGQGTLVTVSSGGGGSGGGSGGGGSGGGSHHHHHH
B9: anti-DLL3 trispecific protein 4E08 (protein, part only; not given: anti-CD3 fragment and anti-albumin sdAb, part only)
chain, part: EVQLVESGGGLVQPGGSLTLSCAASGSSVKFLSMAWYRQAPGKKRELVAGISTDGSTDYIDSVKGRFTISRDNAKNSVYLQMNSLRAEDTAVYYCYAYKWTTRYTYWGQGTLVTVSSGGGGSGGGSGGGGSGGGSHHHHHH
B10: anti-DLL3 trispecific protein 3F05 (protein, part only; not given: CD3 binder and albumin binder, part only)
chain, part: EVQLVESGGGLVQPGGSLTLSCAASGSKVSFLSMAWYRQAPGKKRELVAGISTDGSTDYIDSVKGRFTISRDNAKNSVYLQMNSLRAEDTAVYYCYAYRWTTRRTYWGQGTLVTVSSGGGGSGGGSGGGGSGGGSHHHHHH
B11: anti-DLL3 trispecific protein 3G09 (protein, part only; not given: CD3 fragment and albumin sdAb, part only)
chain, part: EVQLVESGGGLVQPGGSLTLSCAASGSSVSVLSMAWYRQAPGKKRELVAGISADGSTDYIGSVKGRFTISRDNAKNSVYLQMNSLRAEDTAVYYCYAYRWTTRTTYWGQGTLVTVSSGGGGSGGGSGGGGSGGGSHHHHHH
B12: anti-DLL3 trispecific protein 4C07 (protein, part only; not given: anti-CD3 and anti-albumin domains, part only)
chain, part: EVQLVESGGGLVQPGGSLTLSCAASGSKVSFLSMAWYRQAPGKKRELVAGISADGSKDYIDSVKGRFTISRDNAKNSVYLQMNSLRAEDTAVYYCYAYRWTTRLTYWGQGTLVTVSSGGGGSGGGSGGGGSGGGSHHHHHH
B13: anti-DLL3 trispecific protein 3B05 (protein, part only; not given: anti-CD3 and anti-albumin domains, part only)
chain, part: EVQLVESGGGLVQPGGSLTLSCVASGSSVKFLSMAWYRQAPGKKRELVAGISADGSTTYIDSVKGRFTISRDNAKNSVYLQMNSLRAEDTAVYYCYAYRWTTRRTYWGQGTLVTVSSGGGGSGGGSGGGGSGGGSHHHHHH
B14: anti-DLL3 trispecific protein 1E02 (protein, part only; not given: anti-CD3 fragment and anti-albumin sdAb, part only)
chain, part: EVQLVESGGGLVQPGGSLTLSCVASGQTSSINAMGWYRRAPGKQRELVAGISSDGSQVYADSVKGRFTISRDNAKNSVYLQMNSLRAEDTAVYYCYYFRTKSGSSMRYWGQGTLVTVSSGGGGSGGGSGGGGSGGGSHHHHHH
B15: anti-DLL3 trispecific protein 2A08 (protein, part only; not given: anti-CD3 and anti-albumin domains, part only)
chain, part: EVQLVESGGGLVQPGGSLTLSCVASGSTKSINAMGWYRRAPGKQRELVAGISSDGSKVYRDSVKGRFTISRDNAKNSVYLQMNSLRAEDTAVYYCYYFRTSSGSSMRYWGQGTLVTVSSGGGGSGGGSGGGGSGGGSHHHHHH
B16: anti-DLL3 trispecific protein 2G09 (protein, part only; not given: CD3 fragment and albumin sdAb, part only)
chain, part: EVQLVESGGGLVQPGGSLTLSCVASGSTSSINAMGWYRRAPGKQRELVAGVSSDGSKVYADSVKGRFTISRDNAKNSVYLQMNSLRAEDTAVYYCYYFRTVSGSSARYWGQGTLVTVSSGGGGSGGGSGGGGSGGGSHHHHHH
B17: anti-DLL3 trispecific protein 2D010 (protein, part only; not given: CD3 binder and albumin binder, part only)
chain, part: EVQLVESGGGLVQPGGSLTLSCVASGSTSSINAMGWYRRAPGKQRELVAGISSDGSKVYADSVKGRFTISRDNAKNSVYLQMNSLRAEDTAVYYCYYFRTKSGSSMRYWGQGTLVTVSSGGGGSGGGSGGGGSGGGSHHHHHH
B18: anti-DLL3 trispecific protein 1C07 (protein, part only; not given: anti-CD3 fragment and anti-albumin sdAb, part only)
chain, part: EVQLVESGGGLVQPGGSLTLSCVASGSTSSINAMAWYRRAPGKQRELVAGISSDGSKVYADSVKGRFTISRDNAKNSVYLQMNSLRAEDTAVYYCYYFRTVSGSSMRYWGQGTLVTVSSGGGGSGGGSGGGGSGGGSHHHHHH
B19: anti-DLL3 trispecific protein 1A01 (protein, part only; not given: anti-CD3 and anti-albumin domains, part only)
chain, part: EVQLVESGGGLVQPGGSLTLSCVASGFTSSINAMGWYRRAPGKQRELVAGISSDGSFVYADSVKGRFTISRDNAKNSVYLQMNSLRAEDTAVYYCYYFRHVSGSSMRYWGQGTLVTVSSGGGGSGGGSGGGGSGGGSHHHHHH
B20: anti-DLL3 trispecific protein 2H06 (protein, part only; not given: anti-CD3 fragment and anti-albumin domain, part only)
chain, part: EVQLVESGGGLVQPGGSLTLSCVASGSTSTINAMGWYRRAPGKQRELVAGISSDGSKVYADSVKGRFTISRDNAKNSVYLQMNSLRAEDTAVYYCYYFRTASGSSMRYWGQGTLVTVSSGGGGSGGGSGGGGSGGGSHHHHHH
B21: anti-DLL3 trispecific protein 2C010 (protein, part only; not given: CD3 binder and albumin binder, part only)
chain, part: EVQLVESGGGLVQPGGSLTLSCVASGSTSKINAMGWYRRAPGKQRELVAGISSDRSKVYADSVKGRFTISRDNAKNSVYLQMNSLRAEDTAVYYCYYFRTVAGSSMRYWGQGTLVTVSSGGGGSGGGSGGGGSGGGSHHHHHH
B22: anti-DLL3 trispecific protein 2A01 (protein, part only; not given: anti-CD3 fragment and anti-albumin sdAb, part only)
chain, part: EVQLVESGGGLVQPGGSLTLSCVASGSTSSINAMGWYRRAPGKQRELVAGISSDGSKVVADSVKGRFTISRDNAKNSVYLQMNSLRAEDTAVYYCYYFRTLSGSSMRYWGQGTLVTVSSGGGGSGGGSGGGGSGGGSHHHHHH
B23: anti-DLL3 trispecific protein 1C011 (protein, part only; not given: anti-CD3 fragment and anti-albumin domain, part only)
chain, part: EVQLVESGGGLVQPGGSLTLSCVASGTTSSINAMGWYRRAPGKQRELVAGISSDGSKVYEDSVKGRFTISRDNAKNSVYLQMNSLRAEDTAVYYCYYFRTVSGSSMRYWGQGTLVTVSSGGGGSGGGSGGGGSGGGSHHHHHH
B24: anti-DLL3 trispecific protein 1E07 (protein, part only; not given: anti-CD3 fragment and anti-albumin sdAb, part only)
chain, part: EVQLVESGGGLVQPGGSLTLSCVASGSTSSINAMAWYRRAPGKQRELVAGISSDGSKVYNDSVKGRFTISRDNAKNSVYLQMNSLRAEDTAVYYCYYFRTVRGSSQRYWGQGTLVTVSSGGGGSGGGSGGGGSGGGSHHHHHH
B25: anti-DLL3 trispecific protein 2B012 (protein, part only; not given: anti-CD3 and anti-albumin domains, part only)
chain, part: EVQLVESGGGLVQPGGSLTLSCVASGTTSSINAMGWYRRAPGKQRELVAGISSDGSKVYNDSVKGRFTISRDNAKNSVYLQMNSLRAEDTAVYYCYYFRTVRGSSMRYWGQGTLVTVSSGGGGSGGGSGGGGSGGGSHHHHHH
B26: anti-DLL3 trispecific protein 1A04 (protein, part only; not given: anti-CD3 fragment and anti-albumin sdAb, part only)
chain, part: EVQLVESGGGLVQPGGSLTLSCVASGSTSSINAMGWYRRAPGKQRELVAGISSDGSKVYEDSVKGRFTISRDNAKNSVYLQMNSLRAEDTAVYYCYYFRTVSGSSMRYWGQGTLVTVSSGGGGSGGGSGGGGSGGGSHHHHHH
B27: anti-DLL3 trispecific protein 2B05 (protein, part only; not given: anti-CD3 fragment and anti-albumin domain, part only)
chain, part: EVQLVESGGGLVQPGGSLTLSCVASGTTSSINAMGWYRRAPGKQRELVAGISSDGTKVYADSVKGRFTISRDNAKNSVYLQMNSLRAEDTAVYYCYYFHTVSGSSMRYWGQGTLVTVSSGGGGSGGGSGGGGSGGGSHHHHHH
B28: anti-DLL3 trispecific protein 1B05 (protein, part only; not given: CD3 binder and albumin binder, part only)
chain, part: EVQLVESGGGLVQPGGSLTLSCVASGSTSSINAMAWYRRAPGKQRELVAGISSDGSKVYADSVKGRFTISRDNAKNSVYLQMNSLRAEDTAVYYCYYYRTVSGSSMRYWGQGTLVTVSSGGGGSGGGSGGGGSGGGSHHHHHH
B29: anti-DLL3 trispecific protein 2B03 (protein, part only; not given: CD3 fragment and albumin sdAb, part only)
chain, part: EVQLVESGGGLVQPGGSLTLSCVASGSTSSINAMGWYRRAPGKQRELVAGISSDGSLVYADSVKGRFTISRDNAKNSVYLQMNSLRAEDTAVYYCYYFTTVSGSSMRYWGQGTLVTVSSGGGGSGGGSGGGGSGGGSHHHHHH
B30: anti-DLL3 trispecific protein 2F07 (protein, part only; not given: anti-CD3 fragment and anti-albumin domain, part only)
chain, part: EVQLVESGGGLVQPGGSLTLSCVASGSTSSINAVGWYRRAPGKQRELVAGISSDGSSVYADSVKGRFTISRDNAKNSVYLQMNSLRAEDTAVYYCYYFRTVSTSSMRYWGQGTLVTVSSGGGGSGGGSGGGGSGGGSHHHHHH

In the assay the target is biotinylated human DLL3 protein expressed as a human IgG1 fusion protein (human) (UniProt Q9NYJ7). Kind of assay: Octet BLI; biotinylated huDLL3-IgG1 fusion on streptavidin tips; single 50 nM; conditioned medium.
Chain of biotinylated human DLL3 protein expressed as a human IgG1 fusion protein (human) (Q9NYJ7 other isoform, or with tags, fused parts or gaps): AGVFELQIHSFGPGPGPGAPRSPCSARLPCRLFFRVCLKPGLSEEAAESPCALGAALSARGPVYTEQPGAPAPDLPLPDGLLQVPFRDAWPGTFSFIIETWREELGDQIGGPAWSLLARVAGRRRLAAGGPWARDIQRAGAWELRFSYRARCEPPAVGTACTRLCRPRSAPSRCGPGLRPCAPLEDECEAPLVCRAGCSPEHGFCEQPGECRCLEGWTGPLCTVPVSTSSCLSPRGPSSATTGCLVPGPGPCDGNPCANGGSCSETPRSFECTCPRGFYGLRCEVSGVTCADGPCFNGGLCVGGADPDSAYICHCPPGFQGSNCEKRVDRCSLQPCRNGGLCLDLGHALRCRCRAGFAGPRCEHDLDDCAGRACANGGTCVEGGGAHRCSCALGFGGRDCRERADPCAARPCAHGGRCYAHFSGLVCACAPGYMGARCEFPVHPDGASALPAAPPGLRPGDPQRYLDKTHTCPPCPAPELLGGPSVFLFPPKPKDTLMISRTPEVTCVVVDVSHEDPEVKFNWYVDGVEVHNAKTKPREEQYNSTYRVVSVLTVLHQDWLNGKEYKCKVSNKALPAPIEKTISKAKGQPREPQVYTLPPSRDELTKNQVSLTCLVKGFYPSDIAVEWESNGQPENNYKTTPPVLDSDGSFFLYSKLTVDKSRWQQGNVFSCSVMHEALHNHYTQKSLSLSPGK
The Kd is a measure of binding affinity in units of concentration. In the case of B1, the Kd came to 7.1 nM.
The figure for B2 is 7.5 nM; for B3 it is 7.1 nM.
The figure for B4 is 8 nM; for B5 it is 7.5 nM; for B6 it is 7.8 nM.
With B7, the Kd amounted to 7.6 nM.
Next, B8: 7.3 nM; B9: 7.2 nM; B10: 7.5 nM.
The figure for B11 is 7.3 nM.
The figure for B12 is 7.5 nM.
With B13, the Kd amounted to 7.2 nM.
The molecule B14 had a Kd of 7 nM.
The figure for B15 is 7.7 nM.
Next, B16: 8 nM; B17: 7.3 nM; B18: 7.1 nM.
The figure for B19 is 7 nM; for B20 it is 7.9 nM; for B21 it is 7.6 nM.
Turning to B22, the dissociation constant (Kd) turned out to be 8 nM.
Turning to B23, the Kd is 7.6 nM.
Next, B24: 7.1 nM; B25: 7.3 nM; B26: 7.8 nM.
The figure for B27 is 7.4 nM; for B28 it is 8 nM.
Next, B29: 7.6 nM.
In turn, B30 had a Kd of 8 nM.
